Assay results published in patent publication US20250066503A1, “CELL INJURY INDUCING THERAPEUTIC DRUG FOR USE IN CANCER THERAPY” (CHUGAI SEIYAKU KABUSHIKI KAISHA, priority 2016, published 2025).

Key:
[1] = test system: LLC1/hGPC3 syngeneic tumor; test: In vivo drug efficacy, human CD3εδγ gene-modified mouse model; parameters: species or system human CD3εδγ gene-modified mice; conditions: 5 mg/kg Day 11 and Day 14, compared to solvent group or anti-human GPC3, anti-mouse CTLA-4, PD-1, PD-L1 antibodies at 25 mg/kg
Description: (§1) Methods called an NOD scid/T cell-injected model, a humanized NOG mouse model, and a human CD3εδγ gene-modified mouse model were used in the in vivo drug efficacy evaluation. Assay using an NOD scid/T cell-injected model was performed as follows. […] T cells expanded by culturing human PBMCs in vitro were injected into the NOD scid mice with confirmed tumor establishment. The mice were treated by administering bispecific antibody-38 and bispecific antibody-30, -31, -32, or -33. Assay using a humanized NOG mouse model was performed as follows. CD34-positive hematopoietic stem cells derived from umbilical cord blood were transplanted into NOG mice by tail vein injection. Human T cells are constantly supplied in the mice, which are called humanized NOG mice. The PC-10 cell line was transplanted into humanized NOG mice. The humanized NOG mice with confirmed establishment of PC-10 tumor were treated by administering antibody-38. Assay using a human CD3εδγ gene-modified mouse model was performed as follows. Cells of mouse-derived cell line forced to express human GPC3 were transplanted into a human CD3εδγ gene-modified mouse model, which had been prepared according to Reference Example 10. The human CD3εδγ gene-modified mice with confirmed tumor establishment were treated by administering antibody-38. […]

PC-10 xenograft tumor = test: In vivo drug efficacy, humanized NOG mouse model; parameters: species or system humanized NOG mice; conditions: 0.008, 0.04, 0.2, or 1 mg/kg once through the tail vein, compared to the vehicle-administered group
Description: as §1

[2] = test system: MKN74, FU-97, SNU-1, SCC152, KYSE70, PC-10, HuH-7, TOV-21G, RMG-1 and STM-03 xenograft tumors; test: In vivo drug efficacy, NOD scid/T cell-injected model, xenograft tumors of various cancer types; parameters: species or system NOD scid mice; conditions: 1 mg/kg once through the tail vein; compared to the vehicle-administered group
Description: as §1

B1: antibody-38: anti-human CD3ε chain and anti-human GPC3 bispecific antibody; H chains SEQ ID NO: 385 and 402, common L chains SEQ ID NO: 410 (antibody)
heavy 1: QVQLVQSGAEVKKPGASVTVSCKASGYTFTDYEMHWIRQPPGEGLEWIGAIDGPTPDTAYSEKFKGRVTLTADKSTSTAYMELSSLTSEDTAVYYCTRFYSYTYWGQGTLVTVSSASTKGPSVFPLAPCSRSTSESTAALGCLVKDYFPEPVTVSWNSGALTSGVHTFPAVLQSSGLYSLSSVVTVPSSSLGTQTYTCNVDHKPSNTKVDKRVESKYGPPCPPCPAPEFRGGPKVFLFPPKPKDTLMISRTPEVTCVVVDVSQEDPEVQFNWYVDGVEVHNAKTKPREEQFASTYRVVSVLTVLHQDWLNGKEYKCKVSNKGLPSSIEKTISKAKGQPREPQVYTLPPSQEEMTKNQVSLTCLVKGFYPSDIAVEWESNGQPENNYKTTPPVLDSDGSFFLYSKLTVDKSRWQEGNVFSCSVMHEALHNHYTQESLSLSP
heavy 2: QVQLVESGGGVVQPGGSLRLSCAASGFTFSNAWMHWVRQAPGKGLEWVAQIKDKSQNYATYVAESVKGRFTISRADSKNSIYLQMNSLKTEDTAVYYCRYVHYAAGYGVDIWGQGTTVTVSSASTKGPSVFPLAPCSRSTSESTAALGCLVKDYFPEPVTVSWNSGALTSGVHTFPAVLQSSGLYSLSSVVTVPSSSLGTKTYTCNVDHKPSNTKVDKRVESKYGPPCPPCPAPEFRGGPKVFLFPPKPKDTLMISRTPEVTCVVVDVSQEDPEVQFNWYVDGVEVHNAKTKPREEQFASTYRVVSVLTVLHQDWLNGKEYKCKVSNKGLPSSIEKTISKAKGQPREPQVYTLPPSQKEMTKNQVSLTCLVKGFYPSDIAVEWESNGQPENNYKTTPPVLDSDGSFFLYSKLTVDKSRWQEGNVFSCSVMHEALHNHYTQKSLSLSP
light: DIVMTQSPLSLPVTPGEPASISCRSSQPLVHSNRNTYLHWYQQKPGQAPRLLIYKVSNRFSGVPDRFSGSGSGTDFTLKISRVEAEDVGVYYCGQGTQVPYTFGQGTKLEIKRTVAAPSVFIFPPSDEQLKSGTASVVCLLNNFYPREAKVQWKVDNALQSGNSQESVTEQDSKDSTYSLSSTLTLSKADYEKHKVYACEVTHQGLSSPVTKSFNRGEC
modifications: An artificially generated sequence
[1]
  anti-tumor effect: evident anti-tumor effect
PC-10 xenograft tumor
  anti-tumor effect: evident, dose-dependent anti-tumor effect
[2]
  anti-tumor effect: evident anti-tumor effect
